# Test: yeast display, Sf9 membrane polyspecificity reagent, FACS + sequencing; frameworks hold sequencing errors
# Method in brief: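 Galactose-induced (36–48 hours) yeast carrying a synthetic nanobody display library were exposed to 10% biotinylated, detergent-solubilized Sf9 membrane reagent at 4 °C for 1 hour. FACS followed streptavidin microbead enrichment, using low and high (top ~1%) gates for expression (anti-HA) and reagent binding (streptavidin). Colony PCR, MiSeq 2 × 250 sequencing and CDR-length filtering followed. Labels for polyreactivity reflect the gate of origin.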
row,Sequence,polyreactivity (PSR sort gate)
1,QVQLVESGGGLVQAGGSLRLSCAASGRTFFGNAKGWYRQAPGKERELVAAISWRGGSTYYADSVKGRFTISRDNAKKTVYLQMNSLKPEDTAVYYCATGRYGYGYWGQGTQVTVSS,high polyreactivity
2,QVQLVESGGGLVHAGGSLRLSCAPSGFTLVSYAMGWHRKAPGKEREFDAGITDSGGSTYYADSVKGRYTITRDNAKNTFYLQMNSLKPVDTAVYYCKADFAPWDKQDYPYDYDYWGQGTQVTVSS,low polyreactivity
3,QVQLVESGGGLVQAGGSLRLSCAASGSILKSNAMGGSRQAPGKARELVAANSSSGDSTYYADSVKGRFTISRDNAKNTVYLQMHSLKPADTAVYSCAARLRGRTRTGYYWGQGTQVTVSS,high polyreactivity
4,QVQLVESVGGLVQAGGSLRLSCAASGRTLFTNGMGWYRQAPGKESELVAAISTSGGSTHYADSVKGRFTISRDNAKNTVYLQMNSLKPEDTAVYYCAVDVLTVGQSYDHWGQGTQVTVSS,high polyreactivity
5,QVQLVESGGGLVQAGGSLRLSCAASGSIFALYAMGWYRQAPGKERELVAAIDWSDGGTYYADSVKGRFTISRDNAKNTVYLQMNSLKPEDTAVYYCAADQYWDGYDFLYDYWGQGTQVTVSS,low polyreactivity
6,QVQLVESGGGLVQAGGSLRLSCAASGFTFCRYAMGWYRQAPGKEREFVAGISSSGGSTYYADSVKGRFTISRDNAKNTVYLQMNSLKPEVTAVYYCNKARYFTGQRYDYWGQGTQVTVSS,high polyreactivity
7,QFQQVESGGGLVQAGGSLRLSCAATGSIFSYTMGWYRQAPGKERELVAAITSGGITYYADSVKGRFTISRDNAKNTVYLQMNSLKPEDSAVYYCNAYYPYGLASFYYWGQGTQVTVSS,low polyreactivity
8,QVKLVESGGRLVQAGGSLRLTCAASGFIFLNYSMGWYRQAHGKERELVAAISRSGGRTYYADSVTGRFTISRDYAKNTVYLQMNSLKPEDPAVYYCAVYIYGIVFYFTYMYVNCYDYWGQGTQVTVSS,high polyreactivity
9,QVQLVESGGGLVQAGGSLRLSCAASGRIFDDNAMGWDRQAPGKETELVAAISASGGSTYYADSVKGRFTISRVNAKNTVYLQMNSLKPEDTAVYYCAKAPGQDTPYPYGYWGQGTQVTVSS,high polyreactivity
10,QVQLVESGGGLVQAGRSLRLSCAASGLIFSWYAMGWYRQAPGKEREFVAAIRWSGSGTYYADSVKGRFTISRDNAKNTVYLQMNSLKPEDTAVYYCAVRWSSGSRRYNYWGQGTQVTVSS,high polyreactivity
11,QVHLVESGGGLVQAGGSLRLRCAASGYPFKRNDMGWYRHAPGKETQFVPAISKSGGSTYYADSVKGRFTISRDNAKNSVYLQRNSLKPEDTAVSYCAATRGLYRYWGRDKFDYWGQGTQVTVSS,low polyreactivity
12,QVQLVESGGGLVQAGGSLRLSCAASGRIFRYYVMGWYRQAPGKERELVAAISRSGGTTYYADSVKGRFTISRDTATNTVYLQMNSLKREDTAVFYCAAVYGRDPGDYWGQGTQVTVSS,high polyreactivity
13,QVQLVESGGGLVQAGGSLRLSCAASGITFARYAMGWYRQAPGKETELVAALSKRGGRTYYADSVKGRFTISRDNAKNTVYLQMNSLKPEDTAVYYCATDYYVSTDYNYWGQGTQVTVSS,high polyreactivity
14,QVQLVESGGGLVQAGGSLRLSCAASGSIFVGFARGWYRQAPGKERELVAAISWSGDSTYYADSVKGRVTISRDNAKKTVYLQLNSLKPEDTAVYYCAVDYAEIGPRREVEYDYWGQGTQVTVSS,low polyreactivity
15,QVQLVESGGGLVQAGGSLRLSCAASGLTFYIYAMGWYRQAPGKEREFVAAIRRSDARTYYADSVKGRFTISRDNAKNTVYLQMNSLKPEDTAVYYCARPPWFTGYNSGYWGQGTQVTVSS,high polyreactivity
16,QVQLVESGGGLVQAGGSLRLSGAASGGTFSTNAMGWYRQAPGKERELVAAISLSGGRTYADSEKGRFTISRDNAKNTVYLKMNSVKPEDTAVYYCNADSAGITRARSELDYWGQGTQVTVSS,low polyreactivity
17,QVQLVESGGGLVQAGGSLRLSCAASGFILRWYAMGWYRQAPGKERELVAAISWSGGSTYYADSVKGRFTISRDNAKNTVYLQMNSLKPEDTAVYYCNAVNYRNKYDYWGQGTQVTVSS,high polyreactivity
18,QVQLVESGGGLVQAGGSLRLSCAASGFTFYNYAMGWYRQAPGKERELVAAITSSGTSTYYADSVKGRFTISRDNAKNTVYLQMNSLKPEDTAVYYCNAVSSYSYSYDYWGQGTQVTVSS,low polyreactivity
19,QVQLVESGGGLVQAGGSLRLSCAASGSTLDIYAMGWYRQAPGKERELVAAITSGGSTNYADSVKGRFTISRDNAKNTVYLQMNSLKPEDTAVYYCNARYFRGYDYWGQGTQVTVSS,high polyreactivity
20,QVQLVESGGGLVQAGASLRLSCAASGSTFPYYAMGWYRQAPGKERELVAAISGSGGTTYYADSVKGRFTISRDNAKNTVYLQMNSLKPEDTEVYYCAVDIGVGYGYYYWGQGTQVTVSS,low polyreactivity
21,QVQLVESGGGLVQAGGSLRLSCAASGRIFTRYAMGWYRQAPGKERELVAAITSGGSTYYADSVKGRFSISRDNAKNTVYLQMNSLKPEDTAVYYCAAVVISSGVRYDYWGQGTQVTVSS,high polyreactivity
22,QVQLVESGGGLVQAGGSLRLSCAASGSTFSGNTMGWYRQAPGKERELVAAISRGGTRTNYADSVKGRFTISRDNAKNTVYLQMNSLKPEDTAVYYCAAGGSWGQNGYWGQGSQVTVSS,high polyreactivity

row,Sequence,polyreactivity (PSR sort gate)
1,QVHLVESGGGLVQAGGSLRLSCAASGFTFIDYAMGWYRQAPGTERELVAAITTGTITYYADSVQGRFTISRDNAKNTVYLQMNSLKPEDTAVYYCAPTYSRRGGYRMEYWGQGTQVTVSS,low polyreactivity
2,QVQLVESGGGLVQAGGSLRLSCAASGSTFARYTMGWYRQAPGKERELVAAITSNGVSTYYADSVKGRFTISRDNAKNTVYLQMNSLKPEDTAVYYCAAEYRPRYKRIWVVTKDYWGQGTQVTVSS,low polyreactivity
3,QVQLVDSGGGLVQAGGILRLSCAASGRTISSYAMGWYRQAPGKERELVAAITRTGGRTYYAYSVKGRFTISRDNAKNTVYLQMNSLKPEDTAVYYCAATGIRYGVKYYYWGQGTQVTVSS,high polyreactivity
4,QVQLVESGGGLVQAGGSLRLSCAASGSTLAPYVMGWYIQAPGKERELVAVISTRTGRTYYAVSVKGRFTISRDNAKNTVYLQMNSLKPEDTAVYYCAAAYGWSWYRYDYWGQGTQVTVSS,high polyreactivity
5,QVQLVESGGGLVHAGGILRLSCAASGFIFWSYAKGWYRQAPGKERELFAAIDLSGGSTYYADSVKGRFTISRDNAKNTVYLQLNSLKPEDTAVYYCNADGDTYAFTNSDSGFDYWGQGTQVTVSS,low polyreactivity
6,QVQLVESGGGLVQAGGSHRLSCAASGRTFPYYAMGWYRQAPGKERELVAAITRGVRTHYADSVKGRFTISRDNAKNTVYLQMNSLKPEDTAVYYCAREDWGSYSDMDSWGQGTQVTVSS,low polyreactivity
7,QVQLVESGGGLVQAGGSLRLSCAASGSIFWNYAMGWYRQAPGKEREFVASISRSGGSTYYADSVKGRFTISRDNAKNTVYLQMNSLKPEDTAVYYCAARGVKISYNYWGQGTQVTVSS,high polyreactivity
8,QVQLVESGGGLVQAGGSLRLSCAASGRIFPYYAMGWYRQEPGKEREFVAAISSSGDSTYYADSVKGRFTISRDNAKNTVYLQMNSLKPEDTPVYYCATRYRSSQWYSPYKYDYWGQGTQVTLSS,low polyreactivity
9,QDQLVESGGGLVQAGGSLRLICAASGRSLIHYAMGWYRQAPGKERELVASMTYSGGSTYYADSVKGRFTISRDNAKMTVYLQMNSLKPEDTAVYYCAATLGNRWFHYNYWGQGTQVTVSS,low polyreactivity
10,QVQLVESAGGLVQAGGSLRLSCAASGRILVRNAMGWYRQAPGTERELVAAIRRGTSTNYADSVKGRFTISRDNAKNTVYLQMNSLKPEDTAVYYCAVRAASPYLDGAWRRRYDYWGQGTQVTVSS,low polyreactivity
11,QVQLVESAGGLVQAGVSLRLSCAASGSIYPGSAMRWYRQAPGNERELVAAITFGGGITYYADSVKGRFTISRDNAKYTVYLQMNSLKPEDSAVYYCAAKSPRILLDYWGQGTQVTVSS,low polyreactivity
12,QVQLVESGGGLVQAGGSLRLSCAASGYIFRKYAMGWYRQAPGKERELVADISSSGGSTYYADSVKGRFTISRDNAKNTVYLQMNSLKPEDTAVYYCAKDRKSSRRITRMDYWGQGTQVTVSS,high polyreactivity
13,QVQLVESGGGLVQAGGSLRLSCAASGSIFFGYAMGWYRQAPGKERELVAAISTRGGRTYYADSVKGRFTISRDNAKNTVYLQMNSLKPEDTAVYYCAAFQAHQTAFDYWGQGTQVTVSS,high polyreactivity
14,QVQLVESGGGLVQAGASLRLSCAASGFTFYSYDMGWYRQAPGKERELVAVITERGSSTYYADSVKGRFTISRDNAKNTVYLQMNSLKPEDTAVYYCAAYSEYYGVYYWGQGTLVTVSS,low polyreactivity
15,QVQLVESGGGLDQAGGSLRLSCAASGSIFDYYTMGWYRQAPGKERELVASITQSGGSTYYADSVKGRFTISRDNAKNTVYLQMTSLKPEDTAVYYCAADGRYVRIRGDYWGQGTQVTVSS,low polyreactivity
16,QVQLVESGGGLVQAGGSLRLSCAASGSTFVTNAMGWYRKAPGKERELVAAIRWSGGNTYYADSVKGRFTISRDNAKNTVYLQMNSLKPEDTAVYYCAAKKHLLPSYRGIRYYYWGQGTQVTVSS,high polyreactivity
17,QVQLVESGGGLVQAGGSLRLSCAASGLTFYHYHMGWYRQAPGKERELVAAITIGGSTYYADSVKGRFTISRDNAKNTVYLQMNSLKPEDTEVYYCAAEPQRDSSGLDYWGQGTQVTVSS,low polyreactivity
18,QVQLVESGGGLVQAGGSLRLSCAASGFIFPTYAMGWYRQAPGKERELVAAITWSGSDTYYADSVKGRFTISRDNAKNTVYLQMNRLKPEDTAVYYCAAEVSKYGWRYYYWGQGTQVTVSS,low polyreactivity
19,QVQLVESGGGLVQAGGSLRLSCAASGFNFGINAMGWYRQAPGKEREWVAAINQSGDRTYYADSVKGRFTISRDNAKNTVYLQMNSLNPEDTEVYYCASLSTYRTWYGDWGQGTQVTVSS,high polyreactivity
20,QDQLVESRGGLVQAGGSLRLRCAASGSIFIGYAMGWYRQAPGKQRELVAAISGSGSSTYYADSVKGRFTISRDNAKNNDYLQMNILKPEDTAVYYCAAAPRFRGYDYCGQGTQVTVSS,high polyreactivity
21,KVQLVESGGGLVQAGGSLRLSCAASGFTFYWYDMGWYRQAPGKERELVATISTGGGTNYADSVKGRFTISRDNAKNTVYLQMKSLKPEDTAVYYCAADGSAGYQWGYDFEGDYWGQGTQVTVSS,high polyreactivity
